The values that follow are results of earlier work, collected in article PMC10480133.

For the series, the target named is GRGDSPK peptide.

As usually defined, the Kd is the constant that tells how readily two partners part at equilibrium. Turning to Integrin αvβ3 (from UniProt P06756), the Kd was 12.2 nM.
